Measured values published in patent US8906356 (MIT, dated 2014).

How the values were obtained:
[1] = target: T1, IL-2 receptor α subunit (IL-2Rα, CD25) on Kit225 cells (human, UniProt P01589 22-272); test: cell surface titration on Kit225 cells, flow cytometry with anti-FLAG detection
T1 construct: whole, on cells; Kit225 cells express all three IL-2 receptor subunits, with IL-2Rα in ~10 fold excess; also called p55
T1 sequence (looked up): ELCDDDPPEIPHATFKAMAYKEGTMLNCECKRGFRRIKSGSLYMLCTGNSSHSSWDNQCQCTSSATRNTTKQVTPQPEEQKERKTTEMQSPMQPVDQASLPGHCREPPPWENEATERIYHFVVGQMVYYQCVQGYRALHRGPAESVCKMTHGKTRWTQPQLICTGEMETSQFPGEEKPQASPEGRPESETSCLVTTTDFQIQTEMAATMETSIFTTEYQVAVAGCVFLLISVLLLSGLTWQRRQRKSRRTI
Description: Determination of IL-2Rα binding affinities of IL-2 mutants. […] At low IL-2 mutant concentrations, the total volume was increased to maintain an excess number of IL-2 mutant molecules over the number of IL-2Rα. After incubation, cells were kept on ice and stained with mouse anti-FLAG monoclonal antibody M2 (Sigma Aldrich, St. Louis, Mo.), followed by an Alexa Fluor 488 conjugated goat anti-mouse antibody (Invitrogen, Carlsbad, Calif.), to detect cell-surface bound protein. The mean single-cell fluorescence was measured, and the dissociation constant (K_D) and the 95% confidence interval were determined as previously described, using the following equation: Fobs = cL_0/(K_D + L_0), where $Fobs$ is the background-corrected mean fluorescence, L_0 is the initial concentration of the protein being measured, and c is the proportionality constant.
The IL-2Rα binding affinity of the IL-2 mutants was measured in using Kit225 cells, a human T cell line that is dependent on IL-2 for growth. Kit225 constitutively expresses all three subunits of the IL-2 receptor, with IL-2Rα in ~10 fold excess. The IL-2Rα binding affinity was measured using cell surface titrations on Kit225.

[2] = target: T2, IL-2 receptor (IL-2Rα, IL-2Rβ and IL-2Rγ) on cells (human, UniProt P01589 22-272; P14784 27-551; P31785 23-369); test: cell-based or functional assay
T2 sequence (looked up) 1: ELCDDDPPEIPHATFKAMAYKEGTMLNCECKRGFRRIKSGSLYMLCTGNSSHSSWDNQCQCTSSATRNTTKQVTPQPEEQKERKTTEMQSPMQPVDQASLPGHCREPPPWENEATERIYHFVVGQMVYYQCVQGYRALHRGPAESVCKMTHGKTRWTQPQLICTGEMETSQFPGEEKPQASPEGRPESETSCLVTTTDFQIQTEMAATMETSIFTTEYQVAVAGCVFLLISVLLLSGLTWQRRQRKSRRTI
T2 sequence (looked up) 2: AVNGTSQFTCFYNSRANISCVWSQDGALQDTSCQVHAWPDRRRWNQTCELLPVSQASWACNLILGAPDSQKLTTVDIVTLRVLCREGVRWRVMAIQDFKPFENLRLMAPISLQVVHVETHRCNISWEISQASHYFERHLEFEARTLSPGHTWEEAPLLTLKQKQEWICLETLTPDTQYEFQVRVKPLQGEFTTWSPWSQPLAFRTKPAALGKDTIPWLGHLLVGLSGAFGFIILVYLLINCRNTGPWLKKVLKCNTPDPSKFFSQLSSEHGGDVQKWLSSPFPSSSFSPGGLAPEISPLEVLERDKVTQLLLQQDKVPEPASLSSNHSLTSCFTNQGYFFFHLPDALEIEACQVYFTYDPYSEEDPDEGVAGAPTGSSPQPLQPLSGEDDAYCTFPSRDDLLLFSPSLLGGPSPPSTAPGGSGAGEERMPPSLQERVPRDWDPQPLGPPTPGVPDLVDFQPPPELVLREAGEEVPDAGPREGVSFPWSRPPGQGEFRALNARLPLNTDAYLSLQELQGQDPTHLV
T2 sequence (looked up) 3: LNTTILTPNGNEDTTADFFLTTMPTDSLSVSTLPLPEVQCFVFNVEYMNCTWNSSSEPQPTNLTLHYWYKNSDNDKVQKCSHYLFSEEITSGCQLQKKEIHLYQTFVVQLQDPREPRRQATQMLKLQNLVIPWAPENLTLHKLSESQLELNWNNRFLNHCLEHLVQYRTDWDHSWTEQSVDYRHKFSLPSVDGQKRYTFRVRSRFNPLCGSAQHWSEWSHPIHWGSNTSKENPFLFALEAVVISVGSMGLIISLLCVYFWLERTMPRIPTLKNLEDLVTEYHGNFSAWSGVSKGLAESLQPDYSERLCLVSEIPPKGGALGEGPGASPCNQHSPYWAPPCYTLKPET

[3] = target: T1, IL-2 receptor α subunit (IL-2Rα, CD25) …; test: cell surface titration on Kit225 cells (method not restated for the double mutant)

B1: Q126T (2-4 IL-2 with a Q126T point mutation) (ligand)
chain: APTSSSTKKTQLQLEHLLLDLQMILNGISNHKNPRLARMLTFKFYMPEKATELKHLQCLEEELKPLEEALRLAPSKNFHLRPRDLISDVNVIVLELKGSETTFMCEYADETATIVEFLNRWITFCTSIISTLT
Q: Which Kd [1] does the source give for B1 here?
A: 0.109 nM

Q: What about the “IC50 of inhibition of STAT5 phosphorylation in Kit225 cells with 25 pM wild type IL-2” value [2] of the same binder?
A: 1.9 nM

B2: V91R (2-4 IL-2 with a V91R point mutation) (ligand)
chain: APTSSSTKKTQLQLEHLLLDLQMILNGISNHKNPRLARMLTFKFYMPEKATELKHLQCLEEELKPLEEALRLAPSKNFHLRPRDLISDVNRIVLELKGSETTFMCEYADETATIVEFLNRWITFCQSIISTLT
Q: B2 was tested. Which Kd [1] did it give?
A: 0.119 nM

Q: What about the “IC50 of inhibition of STAT5 phosphorylation in Kit225 cells with 25 pM wild type IL-2” value [2] of the same binder?
A: 2.4 nM

B3: 2-4 IL-2 (engineered mutant of human IL-2 with high affinity for IL-2Rα) (ligand)
chain: APTSSSTKKTQLQLEHLLLDLQMILNGISNHKNPRLARMLTFKFYMPEKATELKHLQCLEEELKPLEEALRLAPSKNFHLRPRDLISDVNVIVLELKGSETTFMCEYADETATIVEFLNRWITFCQSIISTLT
Q: With B3 as the binder, how does the Kd [1] read?
A: 0.199 nM

B4: Q126T/V91R double mutant (ligand)
chain: APTSSSTKKTQLQLEHLLLDLQMILNGISNHKNPRLARMLTFKFYMPEKATELKHLQCLEEELKPLEEALRLAPSKNFHLRPRDLISDVNRIVLELKGSETTFMCEYADETATIVEFLNRWITFCTSIISTLT
Q: With B4 as the binder, how does the Kd [3] read?
A: 2 nM
